Here are results for one molecule from patent US6362395 (WASHINGTON STATE UNIVERSITY RESEARCH FOUNDATION, dated 2002).

The experiment concerns the target calmodulin (unlabeled, as used in the gel mobility-shift and kinase assays of Example 2) (spinach, UniProt P04353 2-149). Put plainly: gel mobility-shift, non-denaturing PAGE, 0.5 mM CaCl2.

KLRAAAIASVLSS (peptide, UniProt Q43531 328-340, looked up) [synthetic peptide CCaMK 328-340]: the binding result is reported as “no binding”.
